Measured values as given in patent US20240398942A1, “USE OF ANTI-CD40 ANTIBODY” (CHIA TAI TIANQING PHARMACEUTICAL GROUP CO., LTD., priority 2021, published 2024).
Read-outs that look alike come from different tables or passages of the source.

Tests used:
[1] = molecular target: T1, Human CD40-his (Homo sapiens, UniProt P25942); assay: Octet kinetics of humanized C1H1 antibodies; format: binding; settings: Table 3, Octet; for Ka: humanized antibodies in cell supernatant, chimeric and benchmark 5 μg/mL
T1 construct: His; purchased Acro biosystems CD0-H5228
Description: After six days of culture in a shake flask, the cell supernatant containing the humanized antibodies huC1H1-V1 to huC1H1-V4 was harvested and the binding affinity of the antibodies to human CD40 was determined on an Octet system (Fortebio, Octet RED 96) according to the following procedures. Briefly, an anti-human IgG Fc capture (AHC) biosensor (from ForteBio) was pre-soaked in a 10 mM glycine solution (pH 1.5) for 3 s, and then soaked in a running buffer (PBST containing 0.5% w/v of BSA) for 3 s. The pre-soaking and soaking procedures were repeated 3 times. Then, the sensor was soaked in the cell supernatant containing the humanized anti-CD40 antibody, chimeric antibody C1H1 dissolved in HBS-EP^+ buffer at a concentration of 5 μg/mL, or the benchmark dissolved in HBS-EP^+ buffer at a concentration of 5 μg/mL for 120 s, and then soaked in the running buffer for 5 min. The new baseline was run in the running buffer for 180 s. The sensor was then soaked for 120 s in human CD40-his protein (Acro biosystems, Cat. No. CD0-H5228) 2-fold serially diluted from 40 nM in the running buffer and for 10 min in the running buffer […]. Finally, the sensor was pre-soaked in a 10 mM glycine solution (pH 1.5) for 3 s, and then soaked in the running buffer for 3 s. The pre-soaking and soaking procedures were repeated 3 times. The association and dissociation curves were fitted to a 1:1 Langmuir binding model using ForteBio Data Analysis 8.1.

[2] = molecular target: Cynomolgus monkey CD40-his; assay: Biacore surface plasmon resonance affinity and binding kinetics; settings: Table 5, Biacore; for Ka: purified antibodies
Text: (§1) The affinity and binding kinetics of the anti-CD40 antibody in the present application were characterized by a Biacore T200 system (GE Healthcare, Pittsburgh, PA, USA).
(§2) Briefly, a goat anti-human IgG (GE Healthcare, Cat. No. BR100839, human antibody capture kit) was covalently linked to a CM5 chip (GE Healthcare, Cat. No. BR100530, carboxymethylated dextran-coated chip) via the primary amine group using a standard amine coupling kit supplied by Biacore (GE Healthcare, Pittsburgh, PA, USA). Unreacted portions on the biosensor surface were blocked with ethanolamine. Then, the anti-CD40 antibody of the present application and two benchmark antibodies (BM1 (dacetuzumab, Genentech Inc., also referred to CD40-BM1, prepared in-house; the heavy and light chain amino acid sequences are set forth in SEQ ID NOs: 40 and 41, respectively) and BM2 (selicrelumab, Abgenix Inc., also referred to CD40-BM2, prepared in-house; the heavy and light chain amino acid sequences are set forth in SEQ ID NOS: 42 and 43, respectively)) at a concentration of 66.67 nM were directed through the chip at a flow rate of 10 μL/min. Then, serially diluted recombinant human CD40-his (Acro biosystems, Cat. No. CD0-H5228, serially 2-fold diluted from 80 nM in HBS-EP^+ buffer (supplied by Biacore)) or cynomolgus monkey CD40-his protein (Acro biosystems, Cat. No. CD0-C52H6, serially 2-fold diluted from 80 nM in HBS-EP^+ buffer (supplied by Biacore)) was directed through the chip at a flow rate of 30 μL/min. The antigen-antibody binding kinetics was tracked for 2 min and the dissociation kinetics was tracked for 10 min. The association and dissociation curves were fitted to a 1:1 Langmuir binding model using BIAcore evaluation software. KD, Ka, and Kd values were determined.

[3] = molecular target: T1, Human CD40-his; assay: as above; settings: Table 5, Biacore; for Ka: purified antibodies
Text: as §1, §2

[4] = molecular target: binding of CD40 to CD40L (Homo sapiens, UniProt P25942); assay: Ligand blocking competitive ELISA; settings: in words, FIG. 5
Description: The ability of the anti-CD40 antibody to block the binding of CD40 to CD40L was determined by competitive ELISA. Briefly, a human CD40-Fc protein (amino acid residues 21-193 of SEQ ID NO: 30 linked to the N terminus of amino acid residues 99-330 of SEQ ID NO: 28) dissolved in the immobilization buffer (carbonate/bicarbonate buffer) at a concentration of 2 μg/mL was immobilized on a 96-well plate at 100 μL/well and incubated overnight at 4° C. The next day, the plate was washed once with a washing buffer (PBS+0.05% v/v of Tween-20, PBST) before a PBST containing 5% w/v of skim milk was added. The plate was then incubated at 37° C. for 2 h for blocking. The plate was then washed 4 times with the washing buffer.
The anti-CD40 antibody of the present application or the benchmark was serially 5-fold diluted from 200 nM in a PBST containing 2.5% w/v of skim milk, and the serially diluted anti-CD40 antibody or benchmark was added at 100 μL/well to a plate coated with CD40-Fc protein and incubated at 37° C. for 40 min. […] The absorbance of each well was read on a microplate reader using the dual wavelength mode (TMB detection wavelength: 450 nm, reference wavelength: 630 nm). […] Data were analyzed using Graphpad Prism software, and IC50 values were obtained.

T1 sequence (P25942 21-277): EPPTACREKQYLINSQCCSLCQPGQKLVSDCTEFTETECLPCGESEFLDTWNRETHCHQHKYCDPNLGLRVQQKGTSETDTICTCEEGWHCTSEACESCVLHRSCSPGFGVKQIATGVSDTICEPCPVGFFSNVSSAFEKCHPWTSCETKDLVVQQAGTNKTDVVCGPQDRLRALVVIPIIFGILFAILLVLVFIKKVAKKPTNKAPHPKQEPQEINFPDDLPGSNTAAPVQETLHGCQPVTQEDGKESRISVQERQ
Chain of binding of CD40 to CD40L (P25942 21-193): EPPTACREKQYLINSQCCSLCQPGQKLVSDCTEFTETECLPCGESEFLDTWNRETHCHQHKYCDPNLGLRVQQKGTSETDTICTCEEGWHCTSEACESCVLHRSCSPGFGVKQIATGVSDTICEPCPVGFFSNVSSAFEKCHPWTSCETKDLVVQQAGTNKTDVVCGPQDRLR

B1: huC1H1-V1: humanized C1H1 anti-CD40 antibody, VH SEQ ID NO: 20 X1=A, VL SEQ ID NO: 24 X1=K X2=F, human IgG2/κ (antibody, V domains shown)
VH: EVQLVESGGGLVKPGGSLRLSCAASGFTFSNYGISWVRQAPGKGLEWVXSISSGGDNTYYPDNVKGRFTISRDNAKNSLYLQMNSLRAEDTAVYYCARAGEKAMDYWGQGTLVTVSS
VL: EIVLTQSPATLSLSPGERATLSCRASQTINNNLHWYQQKPGQAPRLLIXYASQSISGIPARFSGSGSGTDFTLTISSLEPEDFAVYXCQQFSSWPLTFGGGTKVEIK
modifications: not fully specified; human IgG2/kappa constant regions; VH of huC1H1-V1 to huC1H1-V4; VARIANT 49 X can be A or S; VL of huC1H1-V1 to huC1H1-V4; VARIANT 49 X can be K or Y; VARIANT 87 X can be F or Y
Kd ([1]; dissociation rate): 0.00128 s⁻¹
Ka [1]: 1.41e+06 M⁻¹ s⁻¹
Kd ([1]; read-out: KD): 0.904 nM
Kd ([2]; dissociation rate): 0.002371 s⁻¹
Ka [2]: 2.14e+06 M⁻¹ s⁻¹
Kd ([2]; read-out: KD): 1.11 nM
Kd ([3]; dissociation rate): 0.00248 s⁻¹
Ka [3]: 2.25e+06 M⁻¹ s⁻¹
Kd ([3]; read-out: KD): 1.1 nM
Blocking of the binding of CD40 to CD40L [4]: comparable or slightly lower blocking activity relative to BM1 and BM2

B2: huC1H1-V2: humanized C1H1 anti-CD40 antibody, VH SEQ ID NO: 20 X1=S, VL SEQ ID NO: 24 X1=K X2=F, human IgG2/κ (antibody, V domains shown)
VH: B1 VH
VL: B1 VL
modifications: not fully specified; variable positions X1=S; VL X1=K X2=F; IgG2/kappa constant; VH of huC1H1-V1 to huC1H1-V4; VARIANT 49 X can be A or S; VL of huC1H1-V1 to huC1H1-V4; VARIANT 49 X can be K or Y; VARIANT 87 X can be F or Y
Kd ([1]; dissociation rate): 0.000981 s⁻¹
Ka [1]: 1.65e+06 M⁻¹ s⁻¹
Kd ([1]; read-out: KD): 0.596 nM
Kd ([2]; dissociation rate): 0.002735 s⁻¹
Ka [2]: 2.56e+06 M⁻¹ s⁻¹
Kd ([2]; read-out: KD): 1.07 nM
Kd ([3]; dissociation rate): 0.002704 s⁻¹
Ka [3]: 2.31e+06 M⁻¹ s⁻¹
Kd ([3]; read-out: KD): 1.17 nM
Blocking of the binding of CD40 to CD40L [4]: comparable or slightly lower blocking activity relative to BM1 and BM2
